Measured values taken from the supplement of paper PMC9170038.

System: MS2 coat protein
Assay: apparent KD of MS2 coat protein; designed switch direction (-1 OFF switch, 1 ON switch): -1; higher = weaker reporter binding
Method in brief: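 The reported apparent KD is a per-design median over clusters, from curve fits of normalised cluster fluorescence. Protein titrations used SNAP-549-labelled MS2 coat protein, doubled from 0.7 or 1.5 nM to 3 µM, in Tris-HCl pH 7.5 buffer with KCl, MgCl2, BSA, DTT, tRNA and Tween-20, with no input, 200 uM small-molecule ligand, or an oligonucleotide input. The RNA switches were transcribed on Illumina chips by stalled E. coli RNA polymerase.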

[1] = Eterna round: R95, input ligand: microRNA oligo, concentration not stated
[2] = input ligand: microRNA oligo, concentration not stated
[3] = Eterna round: R95, input ligand: FMN 200 uM
[4] = Eterna round: R95, input ligand: none

For “CCAAGCUGUGUGAGGAUAUGCUGAACCUUGGUUCAGCAGAAGGCACAUGAGGAUCACCCAUGUGAAAAGCUUGG [Mat - Exclusion 4 - JL Mod - D95] (puzzle: Brourd's mod of Exclusion 4)”, the “apparent KD of MS2 coat protein” value [1] was 15.3 nM.
For “CCACAUGCAGGAUAUGUAAAAUUUGACAUGAGGAUCACCCAUGUAGAUCCUGAAUUUCCUGCAGAAGGGCAUGUGG [Mat - Exclusion 5 - Eli Mod - D19] (Eterna round: R97, puzzle: Exclusion 5)”, the “apparent KD of MS2 coat protein” value (input ligand: FMN 200 uM) was 605 nM and the “apparent KD of MS2 coat protein” value (input ligand: none) was 149 nM.
In the case of “CCACGACAUGAGGAUCACCCAUGUGAGGAUAUGGCCUGAAAAGCGUGAGCAGUUUCUAUCAGAAGGCGCGUGGG [salish99_ex1_r4_063] (Eterna round: R97, puzzle: Exclusion 1)”, the “apparent KD of MS2 coat protein” value (input ligand: FMN 200 uM) is reported as 137 nM and the “apparent KD of MS2 coat protein” value (input ligand: none) is reported as 49.4 nM.
For “CCACGACAUGAGGAUCACCCAUGUGAGGAUAUGGCCUGAAAAGCGUGAGCAGUUUGUAUCAGAAGGCGCGUGGG [salish99_ex1_r4_065] (Eterna round: R97, puzzle: Exclusion 1)”, the “apparent KD of MS2 coat protein” value (input ligand: FMN 200 uM) was 79.1 nM and the “apparent KD of MS2 coat protein” value (input ligand: none) was 53.8 nM.
“CCACGUCUGCAGGAUAUCAGAUUGUAAGAUCGAUGAGAAGGGCAGACAUGAGGAUCACCCAUGUCCGCCACCAA [EX6 C.10] (Eterna round: R97, puzzle: Exclusion 6)” was tested, and the “apparent KD of MS2 coat protein” value (input ligand: FMN 200 uM) was 20.6 nM and the “apparent KD of MS2 coat protein” value (input ligand: none) was 20.6 nM.
In the case of “CCACUGUCAGGAUAUCGUGCAUAACGUUUACAUUAUAUGUGCGAGAAGGGACAUGAGGAUCACCCAUGUAAACG [Omei Ex4 A28PK1] (Eterna round: R97, puzzle: Exclusion 4)”, the “apparent KD of MS2 coat protein” value (input ligand: FMN 200 uM) is reported as 604 nM and the “apparent KD of MS2 coat protein” value (input ligand: none) is reported as 566 nM.
With “CCAGACGUUGUAGGAUAUCUGAAAGGAAGUGUAAGAGAAGGAUAGUGUCUGUAAAACAUGAGGAUCACCCAUGUGGGCGCAUCC [PowerStrip EXNG 1.30] (Eterna round: R96, puzzle: Exclusion NG 1)” the “apparent KD of MS2 coat protein” value [2] was 16.7 nM.
With “CCAGCAAAUGUAAGGAUAUGCUGGUCCUUGGAUCAGCAGAAGGUACAUGAGGAUCACCCAUGUGUGAAAGCUGG [Eli bmx4 4.57] (Eterna round: R97, puzzle: Brourd's mod of Exclusion 4)” the “apparent KD of MS2 coat protein” value (input ligand: FMN 200 uM) was 674 nM and the “apparent KD of MS2 coat protein” value (input ligand: none) was 166 nM.
In the case of “CCAGCGUAUGUGAGGAUAUGCUGGUCCUUGGAUCAGCAGAAGGCACAUGAGGAUCACCCAUGUGGUGUCGUUGG [JL bmx4 3.45] (puzzle: Brourd's mod of Exclusion 4)”, the “apparent KD of MS2 coat protein” value [1] is reported as 149 nM.
With “CCAUAUAACUGAGGAUAUCAUCGCCACUGACGUUGAGAAGGCAGACAUGAGGAUCACCCAUGUGAUUUCUCAAUAUUAUACAUC [Prohibition 79 - Jieux - Exclusion NG 1] (Eterna round: R96, puzzle: Exclusion NG 1)” the “apparent KD of MS2 coat protein” value (input ligand: FMN 200 uM) was 118 nM, the “apparent KD of MS2 coat protein” value [2] was 33.8 nM and the “apparent KD of MS2 coat protein” value (input ligand: none) was 40 nM.
In the case of “CCAUCGAGUGUGAGGAUAUGCUGGUCCUUGGAUCAGCAGAAGGCACAUGAGGAUCACCCAUGUGGAUACGGUGG [JL bmx4 3.19] (puzzle: Brourd's mod of Exclusion 4)”, the “apparent KD of MS2 coat protein” value [1] is reported as 30 nM.
“CCAUCGUGUGUGAGGAUAUGCUGGUCCUUGGAUCAGCAGAAGGCACAUGAGGAUCACCCAUGUGAAAACGAUGG [Mat - Exclusion 4 - JL Mod - D88] (puzzle: Brourd's mod of Exclusion 4)” was tested, and the “apparent KD of MS2 coat protein” value [1] was 16.8 nM.
For “CCAUGCACGCUGCGGUCCUACAUGAGGAUCACCCAUGUGGUCUGGUGGCGUGGGUCGCCGGACUUGGCUCGUCUUGA [salish99_S_TOV1_R5_022] (Eterna round: R97, puzzle: Sensor, turn-off variant 1)”, the “apparent KD of MS2 coat protein” value (input ligand: FMN 200 uM) was 25.6 nM and the “apparent KD of MS2 coat protein” value (input ligand: none) was 24.7 nM.
For “CCAUGGAGUGUGAGGAUAUGCUGGUCCUUGGAUCAGCAGAAGGCACAUGAGGAUCACCCAUGUGAAUACCGUGG [Mat - Exclusion 4 - JL Mod - D83] (puzzle: Brourd's mod of Exclusion 4)”, the “apparent KD of MS2 coat protein” value [1] was 31.4 nM.
With “CCAUGGGAGCGAGGAUAUAGACCAUGGGAAGAUCUAGAAGGCGCUGACAUGAGGAUCACCCAUGUGUUCAUGAGGAGGUGGACA (Eterna round: R96, puzzle: Exclusion NG 1)” the “apparent KD of MS2 coat protein” value (input ligand: FMN 200 uM) was 73.7 nM, the “apparent KD of MS2 coat protein” value [2] was 74.4 nM and the “apparent KD of MS2 coat protein” value (input ligand: none) was 47.1 nM.
For “CCAUGGGUGCGAGGAUAUAGCCCAUGGGAAGAGCUAGAAGGCGCAGACAUGAGGAUCACCCAUGUGUUCAUGAGGAGGUGGACA (Eterna round: R96, puzzle: Exclusion NG 1)”, the “apparent KD of MS2 coat protein” value (input ligand: FMN 200 uM) was 124 nM, the “apparent KD of MS2 coat protein” value [2] was 54.8 nM and the “apparent KD of MS2 coat protein” value (input ligand: none) was 84.8 nM.
With “CCCACAGGACAUGAGGAUCACCCAUGUGCGAUAUCCUGAGCGCAGGAUAUUUUCCCACGAAAGGAAGAGAAGGGCGCCGAAAGC [Eternabot solution 1] (Eterna round: R96, puzzle: Exclusion NG 3)” the “apparent KD of MS2 coat protein” value (input ligand: FMN 200 uM) was 24.6 nM, the “apparent KD of MS2 coat protein” value [2] was 29.6 nM and the “apparent KD of MS2 coat protein” value (input ligand: none) was 44.3 nM.
For “CCCACGCACCAAGGAUAUGUUCCGCACAUGAGGAUCACCCAUGUGGCCAGCGAUUCUGUGUGAGAACAGAAGGUGGUUAUGUUA [Eternabot solution 41] (Eterna round: R96, puzzle: Exclusion NG 2)”, the “apparent KD of MS2 coat protein” value (input ligand: FMN 200 uM) was 468 nM, the “apparent KD of MS2 coat protein” value [2] was 315 nM and the “apparent KD of MS2 coat protein” value (input ligand: none) was 219 nM.
In the case of “CCCAGACUAGGAUAUACAAGCCGUGGCGAGGUGGGCCUGGGACAUGAGGAUCACCCAUGUAGAAGGAGUAGGUC [Eternabot (Original) Solution 31] (Eterna round: R97, puzzle: Exclusion 2)”, the “apparent KD of MS2 coat protein” value (input ligand: FMN 200 uM) is reported as 127 nM and the “apparent KD of MS2 coat protein” value (input ligand: none) is reported as 136 nM.
With “CCCAGGGCAGGAUAUAGAGGGCGAAACAUGAGGAUCACCCAUGUGACCUCGGAACAGCUGCUAGAAGGGCCAAAUU [Beesquti] (puzzle: Exclusion 5)” the “apparent KD of MS2 coat protein” value [3] was 21.1 nM, the “apparent KD of MS2 coat protein” value [1] was 14.8 nM and the “apparent KD of MS2 coat protein” value [4] was 15.3 nM.
With “CCCAGUUACGUAGGAUAUUGUACAUGAGGAUCACCCAUGUAAUAAAUGAGGAUUUCGGGUGUCUACAAGAAGGACGGGAUAGGC [Ostracism 17 - Jieux - Exclusion NG 2] (Eterna round: R96, puzzle: Exclusion NG 2)” the “apparent KD of MS2 coat protein” value (input ligand: FMN 200 uM) was 186 nM, the “apparent KD of MS2 coat protein” value [2] was 80.6 nM and the “apparent KD of MS2 coat protein” value (input ligand: none) was 93 nM.
With “CCCAGUUAUUGAGGAUAUUGUACAUGAGGAUCACCCAUGUAAUAAAUGAGGAUUUCGGGUGUCUACAAGAAGGCAAGGAUAGGC [Ostracism 20 - Jieux - Exclusion NG 2] (Eterna round: R96, puzzle: Exclusion NG 2)” the “apparent KD of MS2 coat protein” value (input ligand: FMN 200 uM) was 54.6 nM, the “apparent KD of MS2 coat protein” value [2] was 46.1 nM and the “apparent KD of MS2 coat protein” value (input ligand: none) was 46.8 nM.
“CCCAUGUCAGGAUAUUAGAUACUGCCUCAAAACAAAGGCAUUGAGAAGGGACAUGAGGAUCACCCAUGUAAAAC [Leissobima] (Eterna round: R97, puzzle: Exclusion 4)” was tested, and the “apparent KD of MS2 coat protein” value (input ligand: FMN 200 uM) was 59.5 nM and the “apparent KD of MS2 coat protein” value (input ligand: none) was 183 nM.
With “CCCGUGUGAGGAUAUCCCUCCACAGUACGAAUCGACCCGUGGGAGAAGGCACAUGAGGAUCACCCAUGUGAACG [Eternabot (Original) Solution 30] (Eterna round: R97, puzzle: Exclusion 4)” the “apparent KD of MS2 coat protein” value (input ligand: FMN 200 uM) was 42.5 nM and the “apparent KD of MS2 coat protein” value (input ligand: none) was 32.8 nM.
In the case of “CCCUCACAUGAGGAUCACCCAUGUCAGGAUAUCUAGUCAGACAGUGUAGCACUGCUGAAGAGAAGGGACGUAAA [Isinzare] (puzzle: Exclusion 1)”, the “apparent KD of MS2 coat protein” value [1] is reported as 15.9 nM.
In the case of “CCCUCACAUGAGGAUCACCCAUGUCAGGAUAUUCGAACGGUGUGUUUUUGGCCAGUUGGAAGAAGGGACAUAAA [Riinesbe] (Eterna round: R96, puzzle: Exclusion 1)”, the “apparent KD of MS2 coat protein” value (input ligand: FMN 200 uM) is reported as 278 nM, the “apparent KD of MS2 coat protein” value [2] is reported as 29 nM and the “apparent KD of MS2 coat protein” value (input ligand: none) is reported as 32.2 nM.
With “CCCUCACAUGAGGAUCACCCAUGUCAGGAUAUUCGAACGGUGUGUUUUUGGCCAGUUGGAAGAAGGGACAUAAA [Riinesbe] (puzzle: Exclusion 1)” the “apparent KD of MS2 coat protein” value [1] was 36.2 nM.
For “CCCUCACAUGAGGAUCACCCAUGUCAGGAUAUUCGAGGCGCAAAUACGCCAAAUGCAGGAAGAAGGGACGUGCC [Ususzalaxe] (puzzle: Exclusion 1)”, the “apparent KD of MS2 coat protein” value [1] was 13.5 nM.
With “CCGACUCAAGGAUAUUGUACUGCUGACAUGAGGAUCACCCAUGUGUCCUGACGCGGACGACGAGAAGGUGACGACA [Eternabot (Original) Solution 44] (Eterna round: R97, puzzle: Exclusion 5)” the “apparent KD of MS2 coat protein” value (input ligand: FMN 200 uM) was 981 nM and the “apparent KD of MS2 coat protein” value (input ligand: none) was 292 nM.
“CCGAGCAUAUGAGGAUCAGACAUGAGGAUCACCCAUGUGCUCCGUCGAAGGAAUAAUCAUAAUGCUGGCUCGUCGUG [Eternabot (L2) Solution 6] (Eterna round: R97, puzzle: Sensor, turn-off variant 1)” was tested, and the “apparent KD of MS2 coat protein” value (input ligand: FMN 200 uM) was 555 nM and the “apparent KD of MS2 coat protein” value (input ligand: none) was 457 nM.
In the case of “CCGAGGUAGCGGUCCUAUGACAUGAGGAUCACCCAUGUACCUCGCUACGAGCUUUUUGCUCGUCAUAUAAUUCUCGG [Mat - Sensor v3 - turn-off var 1 - JL Mod - D30] (Eterna round: R96, puzzle: Sensor v3, turn-off variant 1)”, the “apparent KD of MS2 coat protein” value (input ligand: FMN 200 uM) is reported as 56.8 nM, the “apparent KD of MS2 coat protein” value [2] is reported as 49.7 nM and the “apparent KD of MS2 coat protein” value (input ligand: none) is reported as 61.3 nM.
With “CCGAGGUAGCGGUCCUAUGACAUGAGGAUCACCCAUGUACCUCGCUACGAGCUUUUUGCUCGUCAUAUAAUUCUCGG [Mat - Sensor v3 - turn-off var 1 - JL Mod - D30] (puzzle: Sensor v3, turn-off variant 1)” the “apparent KD of MS2 coat protein” value [3] was 45.4 nM, the “apparent KD of MS2 coat protein” value [1] was 57.9 nM and the “apparent KD of MS2 coat protein” value [4] was 66.3 nM.
For “CCGAGGUGGCGGUCCUAUGACAUGAGGAUCACCCAUGUACCUCGCCACAAGCUUUUUGCUCAUCUUAUAAUUCUCGG [Gelelebius] (puzzle: Sensor v3, turn-off variant 1)”, the “apparent KD of MS2 coat protein” value [3] was 18 nM, the “apparent KD of MS2 coat protein” value [1] was 117 nM and the “apparent KD of MS2 coat protein” value [4] was 16.1 nM.
For “CCGAUAAUGUAGGAUAUCGUAUCGGAAACGAUACGAGAAGGACAAACAUGAGGAUCACCCAUGUUCCUUAACGG [Mat - Exclusion 6 - Eli Mod - D73] (puzzle: Exclusion 6)”, the “apparent KD of MS2 coat protein” value [1] was 15 nM.
